Drawing on patent US20160362464A1, this text covers FRET efficiency for 2 substances.

Assay [1] deals with FZD7-CFP. The assay is described as follows: FRET at the plasma membrane of HEK293 cells within 5 min after Wnt5a stimulation (FIG. 4H, I).
Assay [2] addresses FZD7-CFP. The experiment in a line: FRET at the plasma membrane of starved HEK293 cells; printed: No such interaction was observed in starved cells (FIG. 4H, I).
Assay [3] addresses CFP-Gβ1 with untagged Gγ2. The assay is described as follows: FRET at the plasma membrane of control HeLa cells, within 5 min after Wnt5a stimulation (FIG. 2J, L).
The target of assay [4] is CFP-Gβ1 with untagged Gγ2. The assay is described as follows: FRET at the plasma membrane of control HeLa cells, before Wnt5a stimulation (FIG. 2J, L).
Sequence of CFP-Gβ1 with untagged Gγ2 (P62873 2-340, chain 1 of 2): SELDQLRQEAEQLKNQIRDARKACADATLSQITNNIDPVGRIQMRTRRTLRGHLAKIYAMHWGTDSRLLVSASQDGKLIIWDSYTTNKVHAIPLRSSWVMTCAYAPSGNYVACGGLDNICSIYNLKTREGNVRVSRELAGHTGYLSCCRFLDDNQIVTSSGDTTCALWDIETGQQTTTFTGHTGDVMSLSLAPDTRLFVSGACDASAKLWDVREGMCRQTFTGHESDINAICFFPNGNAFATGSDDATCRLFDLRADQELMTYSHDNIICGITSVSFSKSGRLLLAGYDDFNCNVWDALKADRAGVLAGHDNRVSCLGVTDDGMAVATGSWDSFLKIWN
Sequence of CFP-Gβ1 with untagged Gγ2 (P59768 2-68, chain 2 of 2, further chain): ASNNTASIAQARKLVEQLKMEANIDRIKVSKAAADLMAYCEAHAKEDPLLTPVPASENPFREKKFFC

Sequence of Gαi1-YFP (internally tagged) (P10824 2-354): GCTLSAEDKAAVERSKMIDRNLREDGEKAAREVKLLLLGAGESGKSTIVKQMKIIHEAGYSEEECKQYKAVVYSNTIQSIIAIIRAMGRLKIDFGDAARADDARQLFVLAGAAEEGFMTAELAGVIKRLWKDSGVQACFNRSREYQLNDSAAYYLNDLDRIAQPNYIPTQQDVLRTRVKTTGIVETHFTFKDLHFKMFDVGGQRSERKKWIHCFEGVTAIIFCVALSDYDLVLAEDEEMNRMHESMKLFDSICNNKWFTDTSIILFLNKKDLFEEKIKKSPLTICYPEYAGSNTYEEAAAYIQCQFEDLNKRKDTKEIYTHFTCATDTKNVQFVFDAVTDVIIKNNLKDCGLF

As for Gαi3-YFP (internally tagged), the values for the FRET efficiency with FZD7-CFP [1] and in the assay with FZD7-CFP [2] were 0.25 and 0.04, respectively.
For Gαi1-YFP (internally tagged), the FRET efficiency in assay [3] stood at 0.17; in assay [4], 0.36.
